From the DeepSol protein solubility set

Experiment: soluble on expression in E. coli; label from the status in PepcDB or PDB records

Sequence | soluble on expression in E. coli
MSKELFLEIGTEEIPAGFLPKAMADMEAIVTKELENARLAFGEVKTFATPRRLALVVKGLPTVQPDAEITALGPARNIAFGPDGTPSKAAEGFARGQGVDVASLTLVSTEKGEYVAAVRKESGRPVPDLLAEILPRLVGGIPFRKSMRWADLDVRFARPIHWIVALFDGVVVPFAFGNVQSGNVSRGHRFMANQPFPVRDFAHYLDECERHFVIPDPERRKETIRREIHRVAKTAGGHLLPDEGLLDEVAYLVEYPSVVHGTFSPDFLKVPREVLITSMRSHQRYFSIVDDAGKLMPGFITINNTLTEDPSVVVKGNERVLRARLSDARFFFEEDQKVKLETRVESLKNVVYQQKLGTSYEKMERFRALAEGLADLLNPAVKAKTSRAAFLCKADLVSGMVGEFPEVQGIMGREYALLQGEDAEVAAAIAEHYLPTQAGGDLPASDIGAFVSIADKLDTICGCFGVGLIPTGSADPYALRRSALGIINIILDRGCRLSLEGEIGKALELLSAKLTRPAAEVMADVLEFFRGRFVNLMADRYPADAVDAAIAAGFDD | not soluble
MDERIQALRKEVDRVNREILRLLSERGRLVQEIGRLQTELGLPHYDPKREEEMLAYLTAENPGPFPDETIRKLFKEIFKASLDLEERQDQKKFLYSKRHKPEPTRVRVKDVVFGEKPLLIAGPCSIESEEQIMATARFLAARGVRVLRGGAFKPRTSPYGFQGLGVEGLKLGRKAADAFGMVFVTEVMDTRDVEVVAEYADILQIGARNMQNFALLKEVGKARRPVLLKRGLSATMEEWFYAAEYILAQGNEQVILAERGIRTFERWTRNTLDLSAVALAKQETHLPVVVDVTHAAGRTDLLAPLARAALAVGADGVHVEVHPNPKVALSDNQQQMDFAQFDRFLEAIRDLLQAP | soluble
MIPLMHDFEGETVLVVGGGSVGARKARTFATEASVVVLSPEFGDRTFADAEKVRAAPTPEDATDWVERTDPALVVAATDDSDLNGAFSTAAAEHGALVNRTDDHGDQSFGNIVVPATVRDDPVTLAIATGGRAPALSKHLRERFEDEFGNAGLMADLVGDLREDLRDRGVPPAKRRDAVRFVVRSREVWKALDSGRSKGEQVARDVIGELPGDQT | not soluble
MAVTKSSSLLIVGAGTWGTSTALHLARRGYTNVTVLDPYPVPSAISAGNDVNKVISSGQYSNNKDEIEVNEILAEEAFNGWKNDPLFKPYYHDTGLLMSACSQEGLDRLGVRVRPGEDPNLVELTRPEQFRKLAPEGVLQGDFPGWKGYFARSGAGWAHARNALVAAAREAQRMGVKFVTGTPQGRVVTLIFENNDVKGAVTADGKIWRAERTFLCAGASAGQFLDFKNQLRPTAWTLVHIALKPEERALYKNIPVIFNIERGFFFEPDEERGEIKICDEHPGYTNMVQSADGTMMSIPFEKTQIPKEAETRVRALLKETMPQLADRPFSFARICWCADTANREFLIDRHPQYHSLVLGCGASGRGFKYLPSIGNLIVDAMEGKVPQKIHELIKWNPDIAANRNWRDTLGRFGGPNRVMDFHDVKEWTNVQYRDISKL | soluble
MSMIHKFSMNGYNIVLDVNGGAVHVLDDVAYDLLDFYKEKSKEEILEILKSKYQEEKINEAYEEILNLEKEGLLYTEDTYQYHPSFVHREPVVKALCLNVAHDCNLKCKYCFAAQGDFGGEKELMSFEVGKAAIDYLIANSGSRKNLEIDFFGGEPLMNFEVVKQLVDYGRSVEKDYNKNIRFTITTNGVLLNDEIIDYINENMHNVVLSLDGRKEVNDNMRPTLNDKGSYDITLPRFKKLVEKRSKDKYYYIRGTFTRDNLDFSKDVMHFADLGFKLTSVEPVVGDESNPYALREEDLPKIFEEYEKFAVEYADRQLQGDGFKFFHFMIDLNQGPCVIKRITGCGAGNEYLSVTPNGDIYPCHQFVGNEEFKMANIFDEEIVLPENLKNMFREAHVYTKEECKQCWNKFYCSGGCHANAINFNSDISKPYELGCEMQRKRTECSIMIQAKLMLEGATN | not soluble
MAHHHHHHMGRNNKMRSKPSDNVAWYDKGPVEWLPRPVRLTYDQLDQLRDWMMRETIAGRTEEFNKIRHLHREWSQHPLMPVLGDVEPKFPLNLYKQNHRAKRRFLVRWHKANSPTYWMWMPRGPAVATPLHRSSPSQFPEHWKSLARTSSSSSSSGSSSAAP | soluble
MLKGKVALVTGASRGIGRAIAKRLANDGALVAIHYGNRKEEAEETVYEIQSNGGSAFSIGANLESLHGVEALYSSLDNELQNRTGSTKFDILINNAGIGPGAFIEETTEQFFDRMVSVNAKAPFFIIQQALSRLRDNSRIINISSAATRISLPDFIAYSMTKGAINTMTFTLAKQLGARGITVNAILPGFVKTDMNAELLSDPMMKQYATTISAFNRLGEVEDIADTAAFLASPDSRWVTGQLIDVSGGSCL | not soluble
MGSDKIHHHHHHVTTIRFLNGLNTIGGNIVEFATKTSRVIMDFGVAADLSNETVSSAIDNGKLPHVPELFFDQPDVYTHEAIFISHLHIDHMGALQYLKKPIPIYLSEPSYKLYQLLIKLGIEKPVANLHPLAYEQPLTIGDLTVTGFHSDHDEPGVMALLVDDGSRRYAHSGDVRLNGPHAKRVHAWAKRFNQEKLSLFMLEGTSFSFDTAAPVEDQDHPSIPLTEMSLQKQFQTVLAESPTLVVINPYIRNYERLASFQASAHTAGRQLVWEPDDAAVLTTMTDQKPDAILGQTISLTDIARDPQHYVLQNSFDHLERLTDMPITTYIHSNGEPLGDYDPRFAQLKDWLEAHHIPLQFMNASGHASREDLITLAKEVNPRTIVPWHSFHPEREAEALDTQTNAAVVLPERDLYYDFDELSEDE | not soluble
MDDLQADDIKTSDENSAMVLLVDDQAMIGEAVRRGLAGHESIDFHFCADPHQAIAQAVQIKPTVILQDLVMPGLDGLTLVREYRSNPLTRDIPIIVLSTKEDPLIKSAAFAAGANDYLVKLPDNIELVARIRYHSRSYMTLLQRDEAYRALRVSQQQLLDTNLVLQRLMNSDGLTGLSNRRHFDEYLELEWRRATRDQAQLSLLMIDVDYFKAYNDNFGHLEGDEALRQVAKAIRNSCSRPSDLPARYGGEEFAMVLPNTSPGGARLLAEKLRQSVAGMNIPHIAPVPGSSLTVSIGVATVTPQVGQHSRQLILDADKGLYLAKNNGRNQVAAG | soluble
MGSDKIHHHHHHMNNEFYNQGLEKAKQRDYAGAIEEFSRALKLTPYFAEAYLQRGLAYYDSGAILLAVSDYTEVIRINPESVEAYYCRSLARLALKNLPGALEDVEQAIRLNINYAAAHHLRGTVRRKQGYIQDAIASFKQAAELYLQQKDQENCRLCLEKIKQLQPPKQSTIQPTKSPIAPITSVNEYFTQLLDKAEQGDTREAIADLNWILQADPQDAQAYCCRGVVRCKMGNYREAIADFNQALQLNFQDAVVYRNRGKARSLLGDHRGAIADFNQAIQIQPEDTLGYVARGNTYRAMGNYLGAIQDYGKALQINPHDAQAYYNRGIAYTFLEEMQNAVEDYQRAASIFCEQQDWENYQLTQDSLKQIQTSIPEYKQQKSNVLRQKLLRLVGGYWEIAQRLIQQQKDYQPGMSEEWYMQKVIDDLERDRGR | not soluble
SYMERMDKRALISFWESVEHLKNANKNEIPQLVGEIYQNFFVESKEISVEKSLYKEIQQCLVGNKGIEVFYKIQEDVYETLKDRYYPSFIVSDLYEKLLIKEEEKHASQMISNKDEMGPRDEAGEEAVDDGTNQINEQASFAVNKLRELNEKLEYKRQALNSIQNAPKPDKKIVSKLKDEIILIEKERTDLQLHMARTDWWCENLGMWKASITSGEVTEENGEQLPCYFVMVSLQEVGGVETKNWTVPRRLSEFQNLHRKLSECVPSLKKVQLPSLSKLPFKSIDQKFMEKSKNQLNKFLQEETEEDSDLSDYGDDVDGRKDALAEPCFMLIGEIFELRGMFKWVRRTLIALVQVTFGRTINKQIRDTVSWIFSEQMLVYYINIFRDAFWPNGKLAPPTTIRSKEQSQETKQRAQQKLLENIPDMLQSLVGQQNARHGIIKIFNALQETRANKHLLYALMELLLIELCPELRVHLDQLKAGQV | soluble
MSAEEQDTRSGGIQVIARAAELLRVLQAHPGGLSQAEIGERVGMARSTVSRILNALEDEGLVASRGARGPYRLGPEITRMATTVRLGVVTEMHPFLTELSRELDETVDLSILDGDRADVVDQVVPPQRLRAVSAVGESFPLYCCANGKALLAALPPERQARALPSRLAPLTANTITDRAALRDELNRIRVDGVAYDREEQTEGICAVGAVLRGVSVELVAVSVPVPAQRFYGREAELAGALLAWVSKVDAWFNGTEDRK | soluble
MASSIDPLTRLHGILSSYLSEVLGVDRSVVERLLAPPPRKEYGDLGFPLMRFARSSNASADSIVESLRGKLWERGITWASPTLEAGYLNIVFDVEKLGDEVFRLLASGWRPSTARTSRPETIVVEHTSANPIHPLHLGHARNSSLGDALARLLEARGHRVNRRFYVDDVGRQAVVASLGFKLSGVTPRELASRMGVKVDHAVGWVYAVTHNALETVTARKRGDTSKVDEALSTLARLKERGDREVFDRILEAVGSLDDPEGLVSEMMRKYERGEEPEKSLIRGVVSAVLEGFRETLGRFGVDFDDWDWESDLLWSGLVNKIIEEARRSPFLTTHKDAIALDIPRIVREVLARDPEAASTIKLPRSLEIPPLILVRSDGTTLYTTRDLAYSVYKFRVTGADRVINVIGADQRLPQLQIRLALLGLGYRREALNMMHYDYEIVSLPGRRMSSRRGEYVTLDELLEMAKARSVREVESRNPGADRDWIESTAEKIAVGAVRFALVRPGRLKPITLDVERILDLKENTAPYLQYTYARASSILEKHGEIDYLKAHPASLEEGSRRELFVEALRFPLVSAKAADDLAPEDLASYLLRLADMFNSWYQKDSVIHEEWEGARHAKAALVLLVKSVIGEGLRLLGVEPLEKM | soluble
MKLAIIIPVYNAEETIKRAILSVDTSVPYEIICINDGSTDQTQHVLTELQQKHPHIKVIHQSNQGAARSRNVGLEAMSEDVDAFLFLDADDEFLPSRIDLMVNAFNKNKETDVVIGQMARDVNGEWQVISTHQSMVKDAIVTLDRKPDILQSIGPGAKLFSSKYAGLRFDEDVVFCEEHTFIVKAFSKARDIQLIPNIVYGYNEREGSVTAQRADTFLPYMSDALKVRQRVMELLLLLDEKIYYSYRMDNLIVSYLIQAHLKKNNKITQSLLESVIEYMKAMQHTHYSGEAMFRIVRAVEQSATHWTKPLYLQWKKALSEVGIGRPGLIRFKLQVIPKKISFSGKESLKRIFKK | not soluble
MAHHHHHHMSLMDCKYHKHHLYADKFWWSPSPETNHMRGDAEFKWKGNELIAYGDYNAHMQHPANFVTSSSSGSSGSGAATSKSAAAAAGSKKGASARPWFRRTVVVRKSQASDTKPLSTASKIAAAGTSK | not soluble
MGSDKIHHHHHHMYGLIVNKASGNGKGQRTWKKVEYELQIRNTPYLVRFTSGSGHATTIVKELLTEGVKTIIAVGGDGTINEVANGLVNHRVPLGIIPAGSGNDFARCLNIPMHYEKALHRIFENKQKKVDLLHLGQRHCLTVTGIGFDGKIAKTVNEAIYKNWFNQFGFGGLSYVLSMLEVLKDYRPTNIQITVDGKELFFSGVWLVAVANSPNYGGGIRICPEASYDDGLLNICVVHGMSKWQLLRLFPKAYKGKHVVMEQHVTLLTGKDVYVQSDTPVLVQSDGEPIMESPVRLQIKKGALSVV | not soluble
MPTFRSNIVVFNLIARRAFTTTSTKNMGFVEKVRLLDYWKIQDSALQSEFPRSRLVLMVDRRLLVTKDQPDVQMVELSFDDLKQRLGEYGLQFDLSNSCLLDALSTDVDMIPLFGTSIDAADPPEDSPISKKEVLKQLGNSLGGRFTDIRMAMLTMREERQRNLLAKFQSLTKWASIYRRCPKCAAALKMRSSKSGAECVTCQRVYYPTFSPVSITLITDPTNEHALLVRHRGSAGGVFTAVAGFAHSGESMAECARREIAEEVGIEVDSIRSLDMSQPWPMPDSSLMIAHVAVAKIDQKISVCPDELETAQWFTRHQVKEALTTTLADPLLKNLPRTLDDRQTLHYIPPAGAIAHQMIRQWVDGKLENHNSRI | not soluble
